# Measurements: patent US20240392004A1
# Experiments:
# Assay in all cases: cell-based or functional assay
# [1] = target: T1, IFN-γ receptor (IFNGR1 and IFNGR2) (UniProt P15260)
# T1 sequence (looked up) 1: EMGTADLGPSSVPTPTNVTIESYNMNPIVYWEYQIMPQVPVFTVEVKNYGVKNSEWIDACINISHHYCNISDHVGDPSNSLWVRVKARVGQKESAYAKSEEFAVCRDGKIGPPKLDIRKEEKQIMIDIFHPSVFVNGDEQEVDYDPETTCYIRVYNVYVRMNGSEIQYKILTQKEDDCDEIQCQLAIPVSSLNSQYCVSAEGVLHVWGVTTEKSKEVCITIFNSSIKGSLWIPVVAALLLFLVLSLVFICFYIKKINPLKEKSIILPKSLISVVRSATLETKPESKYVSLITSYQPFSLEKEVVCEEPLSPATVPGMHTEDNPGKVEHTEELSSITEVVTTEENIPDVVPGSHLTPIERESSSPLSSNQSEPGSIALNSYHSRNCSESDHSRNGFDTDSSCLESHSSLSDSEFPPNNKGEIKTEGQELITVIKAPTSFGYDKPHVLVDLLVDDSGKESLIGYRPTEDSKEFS
# T1 sequence (looked up) 2: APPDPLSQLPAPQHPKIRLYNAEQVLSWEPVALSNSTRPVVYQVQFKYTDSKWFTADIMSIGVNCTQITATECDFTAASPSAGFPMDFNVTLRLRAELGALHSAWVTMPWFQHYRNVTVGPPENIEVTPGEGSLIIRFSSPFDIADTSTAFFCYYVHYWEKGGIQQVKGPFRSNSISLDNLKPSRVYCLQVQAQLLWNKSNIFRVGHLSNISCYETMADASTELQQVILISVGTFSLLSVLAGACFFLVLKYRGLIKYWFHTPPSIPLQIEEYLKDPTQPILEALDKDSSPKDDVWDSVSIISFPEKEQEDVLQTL
# [2] = target: human IL-12 receptor complex (IL-12Rβ1 and IL-12Rβ2) (human) (UniProt P42701)
# [3] = target: IL-10 receptor (hIL-10Rα and hIL-10Rβ) (human) (UniProt Q13651)
# [4] = target: IL-23 receptor complex (IL-12Rβ1 and IL-23R) (UniProt P42701)
# Chain of IL-23 receptor complex (IL-12Rβ1 and IL-23R) (Q5VWK5 24-629 limits assumed, chain 2 of 2, other chains not shown): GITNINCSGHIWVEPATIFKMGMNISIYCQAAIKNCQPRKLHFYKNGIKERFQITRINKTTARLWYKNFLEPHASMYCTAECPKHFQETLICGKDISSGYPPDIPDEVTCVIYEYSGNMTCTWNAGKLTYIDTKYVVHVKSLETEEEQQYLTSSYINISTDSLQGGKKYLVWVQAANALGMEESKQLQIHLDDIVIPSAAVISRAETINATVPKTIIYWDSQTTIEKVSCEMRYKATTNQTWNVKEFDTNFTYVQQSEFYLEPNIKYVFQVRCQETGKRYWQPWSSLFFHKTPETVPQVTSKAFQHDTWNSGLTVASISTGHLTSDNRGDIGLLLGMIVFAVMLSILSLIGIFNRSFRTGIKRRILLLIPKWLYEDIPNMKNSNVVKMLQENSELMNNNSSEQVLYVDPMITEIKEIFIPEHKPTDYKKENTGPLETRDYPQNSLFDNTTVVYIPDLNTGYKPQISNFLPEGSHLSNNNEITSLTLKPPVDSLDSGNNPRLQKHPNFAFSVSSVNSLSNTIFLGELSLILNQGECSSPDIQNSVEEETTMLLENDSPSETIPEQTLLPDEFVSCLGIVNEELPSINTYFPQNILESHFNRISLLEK
# Chain of human IL-12 receptor complex (IL-12Rβ1 and IL-12Rβ2) (human) (Q99665 24-862, chain 2 of 2, other chains not shown): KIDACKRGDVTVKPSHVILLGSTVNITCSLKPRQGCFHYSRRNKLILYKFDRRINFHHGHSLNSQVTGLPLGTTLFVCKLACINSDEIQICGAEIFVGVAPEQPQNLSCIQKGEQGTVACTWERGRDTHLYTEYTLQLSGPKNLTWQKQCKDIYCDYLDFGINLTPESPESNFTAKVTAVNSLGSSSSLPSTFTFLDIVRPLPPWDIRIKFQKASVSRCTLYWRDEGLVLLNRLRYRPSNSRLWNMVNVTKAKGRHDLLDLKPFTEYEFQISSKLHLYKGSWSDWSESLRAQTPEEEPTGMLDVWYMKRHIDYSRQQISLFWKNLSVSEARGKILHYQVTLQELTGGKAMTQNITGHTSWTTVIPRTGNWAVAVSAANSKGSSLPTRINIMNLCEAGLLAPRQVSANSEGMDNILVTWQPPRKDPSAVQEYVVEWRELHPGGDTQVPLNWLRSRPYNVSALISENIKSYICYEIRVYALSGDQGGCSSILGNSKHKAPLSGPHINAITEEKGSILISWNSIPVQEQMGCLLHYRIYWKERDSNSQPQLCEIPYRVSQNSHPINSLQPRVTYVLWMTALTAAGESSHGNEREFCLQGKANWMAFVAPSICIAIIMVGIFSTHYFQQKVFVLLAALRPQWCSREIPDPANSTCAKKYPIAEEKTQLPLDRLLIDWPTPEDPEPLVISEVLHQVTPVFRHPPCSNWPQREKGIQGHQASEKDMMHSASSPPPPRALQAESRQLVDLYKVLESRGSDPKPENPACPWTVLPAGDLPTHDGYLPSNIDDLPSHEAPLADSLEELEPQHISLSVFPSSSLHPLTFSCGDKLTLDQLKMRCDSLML
# Chain of recombinant human IL-12 (P29459 23-219 limits assumed): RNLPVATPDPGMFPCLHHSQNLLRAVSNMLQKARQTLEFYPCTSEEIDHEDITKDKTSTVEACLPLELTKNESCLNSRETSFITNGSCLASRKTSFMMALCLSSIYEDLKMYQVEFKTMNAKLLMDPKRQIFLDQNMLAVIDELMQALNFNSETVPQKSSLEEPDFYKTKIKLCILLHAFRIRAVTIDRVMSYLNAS
# Chain of recombinant human IL-12 (P29460 23-328 limits assumed): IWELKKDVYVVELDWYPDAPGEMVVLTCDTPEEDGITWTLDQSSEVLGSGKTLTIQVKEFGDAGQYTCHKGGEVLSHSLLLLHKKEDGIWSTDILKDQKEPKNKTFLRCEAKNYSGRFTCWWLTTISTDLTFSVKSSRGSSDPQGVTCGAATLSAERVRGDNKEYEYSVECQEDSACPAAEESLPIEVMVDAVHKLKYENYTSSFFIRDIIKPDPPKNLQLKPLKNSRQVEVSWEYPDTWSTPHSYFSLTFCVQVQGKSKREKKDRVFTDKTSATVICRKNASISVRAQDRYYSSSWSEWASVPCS
# Chain of recombinant human IFN-γ (free state) (P01579 24-166 limits assumed): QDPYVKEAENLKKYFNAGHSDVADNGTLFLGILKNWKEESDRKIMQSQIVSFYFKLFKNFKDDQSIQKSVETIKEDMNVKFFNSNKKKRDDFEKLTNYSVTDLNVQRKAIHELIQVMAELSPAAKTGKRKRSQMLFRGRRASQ
# Chain of IL-10 receptor (hIL-10Rα and hIL-10Rβ) (human) (Q13651 22-578, chain 1 of 2): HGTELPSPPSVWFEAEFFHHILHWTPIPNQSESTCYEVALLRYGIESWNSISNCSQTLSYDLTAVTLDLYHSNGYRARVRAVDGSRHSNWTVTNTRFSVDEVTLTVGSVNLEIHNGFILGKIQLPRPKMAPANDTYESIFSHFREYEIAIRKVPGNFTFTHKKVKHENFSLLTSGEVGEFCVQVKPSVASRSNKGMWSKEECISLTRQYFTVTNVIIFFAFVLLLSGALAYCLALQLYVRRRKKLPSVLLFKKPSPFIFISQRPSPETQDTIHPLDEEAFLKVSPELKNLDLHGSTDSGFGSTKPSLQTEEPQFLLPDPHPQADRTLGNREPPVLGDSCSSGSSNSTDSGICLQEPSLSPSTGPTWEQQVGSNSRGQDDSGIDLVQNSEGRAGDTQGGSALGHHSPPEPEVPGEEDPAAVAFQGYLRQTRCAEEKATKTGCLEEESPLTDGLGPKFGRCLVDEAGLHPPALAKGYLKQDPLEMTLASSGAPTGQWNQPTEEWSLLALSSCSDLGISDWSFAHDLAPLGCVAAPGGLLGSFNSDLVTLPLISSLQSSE
# Chain of IL-10 receptor (hIL-10Rα and hIL-10Rβ) (human) (Q08334 20-325, chain 2 of 2, further chain): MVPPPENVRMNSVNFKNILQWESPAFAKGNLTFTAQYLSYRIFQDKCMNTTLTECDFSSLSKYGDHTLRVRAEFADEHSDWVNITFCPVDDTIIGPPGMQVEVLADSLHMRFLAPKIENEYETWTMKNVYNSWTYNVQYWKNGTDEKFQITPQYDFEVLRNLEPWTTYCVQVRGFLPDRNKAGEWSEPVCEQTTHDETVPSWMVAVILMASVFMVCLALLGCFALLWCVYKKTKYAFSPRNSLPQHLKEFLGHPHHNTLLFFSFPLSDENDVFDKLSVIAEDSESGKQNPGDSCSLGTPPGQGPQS
# Chain of recombinant human IL-23 (free state) (Q9NPF7 20-189 limits assumed): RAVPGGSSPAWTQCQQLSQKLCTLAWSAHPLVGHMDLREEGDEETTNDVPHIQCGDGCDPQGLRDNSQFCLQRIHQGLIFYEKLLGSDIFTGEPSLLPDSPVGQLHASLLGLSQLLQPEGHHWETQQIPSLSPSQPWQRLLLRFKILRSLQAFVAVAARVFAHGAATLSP
# Chain of recombinant human IL-23 (free state) (P29460 23-328 limits assumed): as the sequence (P29460 23-328 limits assumed) above
substance,measurement,setting,value
recombinant human IFN-γ (free state) (from UniProt P01579 24-166) (ligand),"IFN-γ signal transduction, HEK-IFN-γ",[1],100%
same,"IFN-γ signal transduction, HEK-IFN-γ cells, % of rIFN-γ",[1],100%
same,"IFN-γ signal transduction, HEK-IFN-γ-PD-1",[1],100%
same,"IFN-γ signal transduction, HEK-IFN-γ-TIGIT",[1],100%
same,"IFN-γ signal transduction, HEK-PD-1-IFN-γ cells, % of rIFN-γ",[1],100%
recombinant human IL-12 (from UniProt P29459 23-219; P29460 23-328) (ligand),"IFN-γ release, activated PBMC",[2],2300 ng/mL
same,"IL-12 signal transduction, HEK IL-12",[2],100%
same,"IL-12 signal transduction, HEK-IL-12",[2],100%
same,"IL-12 signal transduction, HEK-IL-12-PD-1",[2],100%
same,"IL-12 signal transduction, HEK-IL-12-PD-1 (high)",[2],100%
same,"IL-12 signal transduction, HEK-IL-12-PD-1 (low)",[2],100%
same,"IL-12 signal transduction, HEK-IL-12-TIGIT",[2],100%
same,"IL-12 signal transduction, HEK-IL-12 cells, % of rIL-12",[2],100%
same,"IL-12 signal transduction, HEK-PD-1-IL-12",[2],100%
same,"IL-12 signal transduction, HEK-PD-1-IL-12 cells, % of rIL-12",[2],100%
recombinant human IL-10 (free state) (from UniProt P22301 19-178) (ligand),"IL-10 signal transduction, HEK-IL-10 cells, % of rIL-10",[3],100%
same,"IL-10 signal transduction, HEK-PD-1-IL-10 cells, % of rIL-10",[3],100%
recombinant human IL-23 (free state) (from UniProt Q9NPF7 20-189; P29460 23-328) (ligand),"IL-23 signal transduction, HEK-IL-23 cells, % of rIL-23",[4],100%
same,"IL-23 signal transduction, HEK-PD-1-IL-23 cells, % of rIL-23",[4],100%
